Results reported in patent publication US20120294879A1, “CONSENSUS SEQUENCE FOR INFLUENZA A VIRUS” (priority 2009, published 2012).

The substances below were run against HLA-DR2 (DRB1*1501), chimeric DRA1*0101:I-Eα and DRB1*1501:I-Eβ, as expressed in HLA-DR2 transgenic mice (human; mouse) (UniProt Q8BHN5) (assay: cell-based or functional assay).
Chain of UniProt Q8BHN5 (Q8BHN5 whole entry, change not shown): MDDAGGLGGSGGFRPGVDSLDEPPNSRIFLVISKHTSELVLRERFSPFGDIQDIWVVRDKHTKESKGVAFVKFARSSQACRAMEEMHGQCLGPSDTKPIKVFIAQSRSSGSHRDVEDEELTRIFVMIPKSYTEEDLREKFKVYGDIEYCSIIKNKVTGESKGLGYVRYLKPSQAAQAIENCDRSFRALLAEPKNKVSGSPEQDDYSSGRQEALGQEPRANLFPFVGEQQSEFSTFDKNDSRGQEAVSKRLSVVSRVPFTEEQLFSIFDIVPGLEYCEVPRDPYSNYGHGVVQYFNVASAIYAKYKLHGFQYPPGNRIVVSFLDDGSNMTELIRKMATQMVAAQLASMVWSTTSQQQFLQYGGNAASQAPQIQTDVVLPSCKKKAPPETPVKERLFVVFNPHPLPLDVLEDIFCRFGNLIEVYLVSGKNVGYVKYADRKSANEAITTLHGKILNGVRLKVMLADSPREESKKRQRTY

Question: “M1 169-185 peptide of influenza virus A/New York/348/2003 (H1N1)” was tested. Which IFN-γ ELISpot at 10 µg/ml peptide, splenocytes of immunized HLA transgenic mice did it give?
Answer: 56

Question: And the lowest concentration of peptide giving positive ELISpot response?
Answer: 0.1 µg/mL

Question: Which results are given for “NP 133-149 peptide of influenza virus A/New York/348/2003 (H1N1)”?
Answer: IFN-γ ELISpot at 10 µg/ml peptide, splenocytes of immunized HLA transgenic mice: 238; lowest concentration of peptide giving positive ELISpot response: 0.1 µg/mL

Question: What does the source list for “NP 402-418 peptide of influenza virus A/New York/348/2003 (H1N1)”?
Answer: IFN-γ ELISpot at 10 µg/ml peptide, splenocytes of immunized HLA transgenic mice: 207; lowest concentration of peptide giving positive ELISpot response: 0.1 µg/mL

Question: What does the source list for “NP 408-424 peptide of influenza virus A/New York/348/2003 (H1N1)”?
Answer: IFN-γ ELISpot at 10 µg/ml peptide, splenocytes of immunized HLA transgenic mice: 110; lowest concentration of peptide giving positive ELISpot response: 1 µg/mL

Question: For “PB1 352-368 peptide of influenza virus A/New York/348/2003 (H1N1)”, which IFN-γ ELISpot at 10 µg/ml peptide, splenocytes of immunized HLA transgenic mice is on record?
Answer: 52

Question: What about the lowest concentration of peptide giving positive ELISpot response of the same substance?
Answer: 1 µg/mL

Question: Which IFN-γ ELISpot at 10 µg/ml peptide, splenocytes of immunized HLA transgenic mice does the source give for “PB1 358-374 peptide of influenza virus A/New York/348/2003 (H1N1)” here?
Answer: 84

Question: What about the lowest concentration of peptide giving positive ELISpot response of the same substance?
Answer: 0.1 µg/mL

Question: How did the IFN-γ ELISpot at 10 µg/ml peptide, splenocytes of immunized HLA transgenic mice turn out when “PB1 465-481 peptide of influenza virus A/New York/348/2003 (H1N1)” was run?
Answer: 231

Question: What about the lowest concentration of peptide giving positive ELISpot response of the same substance?
Answer: 1 µg/mL

Question: “PB1 519-535 peptide of influenza virus A/New York/348/2003 (H1N1)” was tested. Which IFN-γ ELISpot at 10 µg/ml peptide, splenocytes of immunized HLA transgenic mice did it give?
Answer: 75

Question: What about the lowest concentration of peptide giving positive ELISpot response of the same substance?
Answer: 0.1 µg/mL

Question: “PB1 525-541 peptide of influenza virus A/New York/348/2003 (H1N1)” was tested. Which IFN-γ ELISpot at 10 µg/ml peptide, splenocytes of immunized HLA transgenic mice did it give?
Answer: 159

Question: And the lowest concentration of peptide giving positive ELISpot response?
Answer: 0.1 µg/mL

Question: “PB1 554-570 peptide of influenza virus A/New York/348/2003 (H1N1)” was tested. Which IFN-γ ELISpot at 10 µg/ml peptide, splenocytes of immunized HLA transgenic mice did it give?
Answer: 109

Question: What about the lowest concentration of peptide giving positive ELISpot response of the same substance?
Answer: 1 µg/mL

Question: Which IFN-γ ELISpot at 10 µg/ml peptide, splenocytes of immunized HLA transgenic mice does the source give for “PB1 560-576 peptide of influenza virus A/New York/348/2003 (H1N1)” here?
Answer: 194

Question: What about the lowest concentration of peptide giving positive ELISpot response of the same substance?
Answer: 0.1 µg/mL

Question: With “PB2 524-540 peptide of influenza virus A/New York/348/2003 (H1N1)” as the substance, how does the IFN-γ ELISpot at 10 µg/ml peptide, splenocytes of immunized HLA transgenic mice read?
Answer: 151

Question: What about the lowest concentration of peptide giving positive ELISpot response of the same substance?
Answer: 0.1 µg/mL

Question: For “PB2 548-564 peptide of influenza virus A/New York/348/2003 (H1N1)”, which IFN-γ ELISpot at 10 µg/ml peptide, splenocytes of immunized HLA transgenic mice is on record?
Answer: 96

Question: Which results are given for “PB2 630-646 peptide of influenza virus A/New York/348/2003 (H1N1)”?
Answer: IFN-γ ELISpot at 10 µg/ml peptide, splenocytes of immunized HLA transgenic mice: 104; lowest concentration of peptide giving positive ELISpot response: 0.1 µg/mL

These substances were tested against HLA-B7 (B*0702), chimeric heavy chain with HLA-B*0702 α1 and α2 domains and H-2Kd murine α3 domain, (human; mouse), B*07:0 (assay: cell-based or functional assay).

Question: How did the IFN-γ ELISpot at 10 µg/ml peptide, splenocytes of immunized HLA transgenic mice turn out when “PB1 328-344 peptide of influenza virus A/New York/348/2003 (H1N1)” was run?
Answer: 60

Question: What about the lowest concentration of peptide giving positive ELISpot response of the same substance?
Answer: 10 µg/mL

Question: What does the source list for “PB2 500-516 peptide of influenza virus A/New York/348/2003 (H1N1)”?
Answer: IFN-γ ELISpot at 10 µg/ml peptide, splenocytes of immunized HLA transgenic mice: 184; lowest concentration of peptide giving positive ELISpot response: 0.1 µg/mL
